B1: GLS3000 P95A (antibody, name in Kabat numbering, V domains shown)
VH: QVQLVESGGGVVQPGRSLRLSCAASGFTFSNAWMHWVRQAPGKGLEWVAQIKAKSNNYATYYAESVKGRFTISRDDSKNSLYLQMNSLKTEDTAVYYCRYVHYGAYYGVDAWGQGTTVTVSS
VL: DIVMTQSPLSLPVTPGEPASISCRSSQSLVHSNRNTYLHWYQQKPGQAPRLLIYKVSNRFSGVPDRFSGSGSGTDFTLKISRVEAEDVGVYYCGQGTQVAYTFGQGTKLEIK
notes: one-arm format as m2
B2: GLS3000 Q27P (antibody, name in Kabat numbering, V domains shown)
VH: QVQLVESGGGVVQPGRSLRLSCAASGFTFSNAWMHWVRQAPGKGLEWVAQIKAKSNNYATYYAESVKGRFTISRDDSKNSLYLQMNSLKTEDTAVYYCRYVHYGAYYGVDAWGQGTTVTVSS
VL: DIVMTQSPLSLPVTPGEPASISCRSSPSLVHSNRNTYLHWYQQKPGQAPRLLIYKVSNRFSGVPDRFSGSGSGTDFTLKISRVEAEDVGVYYCGQGTQVPYTFGQGTKLEIK
notes: one-arm format as m2
B3: GLS3000 P95L (antibody, name in Kabat numbering, V domains shown)
VH: QVQLVESGGGVVQPGRSLRLSCAASGFTFSNAWMHWVRQAPGKGLEWVAQIKAKSNNYATYYAESVKGRFTISRDDSKNSLYLQMNSLKTEDTAVYYCRYVHYGAYYGVDAWGQGTTVTVSS
VL: DIVMTQSPLSLPVTPGEPASISCRSSQSLVHSNRNTYLHWYQQKPGQAPRLLIYKVSNRFSGVPDRFSGSGSGTDFTLKISRVEAEDVGVYYCGQGTQVLYTFGQGTKLEIK
notes: one-arm format as m2
B4: GLS3000 Q90S (antibody, name in Kabat numbering, V domains shown)
VH: QVQLVESGGGVVQPGRSLRLSCAASGFTFSNAWMHWVRQAPGKGLEWVAQIKAKSNNYATYYAESVKGRFTISRDDSKNSLYLQMNSLKTEDTAVYYCRYVHYGAYYGVDAWGQGTTVTVSS
VL: DIVMTQSPLSLPVTPGEPASISCRSSQSLVHSNRNTYLHWYQQKPGQAPRLLIYKVSNRFSGVPDRFSGSGSGTDFTLKISRVEAEDVGVYYCGSGTQVPYTFGQGTKLEIK
notes: one-arm format as m2
B5: GLS3000 Q90Y (antibody, name in Kabat numbering, V domains shown)
VH: QVQLVESGGGVVQPGRSLRLSCAASGFTFSNAWMHWVRQAPGKGLEWVAQIKAKSNNYATYYAESVKGRFTISRDDSKNSLYLQMNSLKTEDTAVYYCRYVHYGAYYGVDAWGQGTTVTVSS
VL: DIVMTQSPLSLPVTPGEPASISCRSSQSLVHSNRNTYLHWYQQKPGQAPRLLIYKVSNRFSGVPDRFSGSGSGTDFTLKISRVEAEDVGVYYCGYGTQVPYTFGQGTKLEIK
notes: one-arm format as m2
B6: GLS3000 Q27R (antibody, name in Kabat numbering, V domains shown)
VH: QVQLVESGGGVVQPGRSLRLSCAASGFTFSNAWMHWVRQAPGKGLEWVAQIKAKSNNYATYYAESVKGRFTISRDDSKNSLYLQMNSLKTEDTAVYYCRYVHYGAYYGVDAWGQGTTVTVSS
VL: DIVMTQSPLSLPVTPGEPASISCRSSRSLVHSNRNTYLHWYQQKPGQAPRLLIYKVSNRFSGVPDRFSGSGSGTDFTLKISRVEAEDVGVYYCGQGTQVPYTFGQGTKLEIK
notes: one-arm format as m2
B7: GLS3000 P95S (antibody, name in Kabat numbering, V domains shown)
VH: QVQLVESGGGVVQPGRSLRLSCAASGFTFSNAWMHWVRQAPGKGLEWVAQIKAKSNNYATYYAESVKGRFTISRDDSKNSLYLQMNSLKTEDTAVYYCRYVHYGAYYGVDAWGQGTTVTVSS
VL: DIVMTQSPLSLPVTPGEPASISCRSSQSLVHSNRNTYLHWYQQKPGQAPRLLIYKVSNRFSGVPDRFSGSGSGTDFTLKISRVEAEDVGVYYCGQGTQVSYTFGQGTKLEIK
notes: one-arm format as m2
B8: GLS3000 Q93E (antibody, name in Kabat numbering, V domains shown)
VH: QVQLVESGGGVVQPGRSLRLSCAASGFTFSNAWMHWVRQAPGKGLEWVAQIKAKSNNYATYYAESVKGRFTISRDDSKNSLYLQMNSLKTEDTAVYYCRYVHYGAYYGVDAWGQGTTVTVSS
VL: DIVMTQSPLSLPVTPGEPASISCRSSQSLVHSNRNTYLHWYQQKPGQAPRLLIYKVSNRFSGVPDRFSGSGSGTDFTLKISRVEAEDVGVYYCGQGTEVPYTFGQGTKLEIK
notes: one-arm format as m2
B9: GLS3000 Q90D (antibody, name in Kabat numbering, V domains shown)
VH: QVQLVESGGGVVQPGRSLRLSCAASGFTFSNAWMHWVRQAPGKGLEWVAQIKAKSNNYATYYAESVKGRFTISRDDSKNSLYLQMNSLKTEDTAVYYCRYVHYGAYYGVDAWGQGTTVTVSS
VL: DIVMTQSPLSLPVTPGEPASISCRSSQSLVHSNRNTYLHWYQQKPGQAPRLLIYKVSNRFSGVPDRFSGSGSGTDFTLKISRVEAEDVGVYYCGDGTQVPYTFGQGTKLEIK
notes: one-arm format as m2
B10: GLS3000 Q90A (antibody, name in Kabat numbering, V domains shown)
VH: QVQLVESGGGVVQPGRSLRLSCAASGFTFSNAWMHWVRQAPGKGLEWVAQIKAKSNNYATYYAESVKGRFTISRDDSKNSLYLQMNSLKTEDTAVYYCRYVHYGAYYGVDAWGQGTTVTVSS
VL: DIVMTQSPLSLPVTPGEPASISCRSSQSLVHSNRNTYLHWYQQKPGQAPRLLIYKVSNRFSGVPDRFSGSGSGTDFTLKISRVEAEDVGVYYCGAGTQVPYTFGQGTKLEIK
notes: one-arm format as m2
B11: GLS3000 Q93D (antibody, name in Kabat numbering, V domains shown)
VH: QVQLVESGGGVVQPGRSLRLSCAASGFTFSNAWMHWVRQAPGKGLEWVAQIKAKSNNYATYYAESVKGRFTISRDDSKNSLYLQMNSLKTEDTAVYYCRYVHYGAYYGVDAWGQGTTVTVSS
VL: DIVMTQSPLSLPVTPGEPASISCRSSQSLVHSNRNTYLHWYQQKPGQAPRLLIYKVSNRFSGVPDRFSGSGSGTDFTLKISRVEAEDVGVYYCGQGTDVPYTFGQGTKLEIK
notes: one-arm format as m2
B12: GLS3000 Q93A (antibody, name in Kabat numbering, V domains shown)
VH: QVQLVESGGGVVQPGRSLRLSCAASGFTFSNAWMHWVRQAPGKGLEWVAQIKAKSNNYATYYAESVKGRFTISRDDSKNSLYLQMNSLKTEDTAVYYCRYVHYGAYYGVDAWGQGTTVTVSS
VL: DIVMTQSPLSLPVTPGEPASISCRSSQSLVHSNRNTYLHWYQQKPGQAPRLLIYKVSNRFSGVPDRFSGSGSGTDFTLKISRVEAEDVGVYYCGQGTAVPYTFGQGTKLEIK
notes: one-arm format as m2
B13: GLS3000 P95G (antibody, name in Kabat numbering, V domains shown)
VH: QVQLVESGGGVVQPGRSLRLSCAASGFTFSNAWMHWVRQAPGKGLEWVAQIKAKSNNYATYYAESVKGRFTISRDDSKNSLYLQMNSLKTEDTAVYYCRYVHYGAYYGVDAWGQGTTVTVSS
VL: DIVMTQSPLSLPVTPGEPASISCRSSQSLVHSNRNTYLHWYQQKPGQAPRLLIYKVSNRFSGVPDRFSGSGSGTDFTLKISRVEAEDVGVYYCGQGTQVGYTFGQGTKLEIK
notes: one-arm format as m2
B14: GLS3000 Q90P (antibody, name in Kabat numbering, V domains shown)
VH: QVQLVESGGGVVQPGRSLRLSCAASGFTFSNAWMHWVRQAPGKGLEWVAQIKAKSNNYATYYAESVKGRFTISRDDSKNSLYLQMNSLKTEDTAVYYCRYVHYGAYYGVDAWGQGTTVTVSS
VL: DIVMTQSPLSLPVTPGEPASISCRSSQSLVHSNRNTYLHWYQQKPGQAPRLLIYKVSNRFSGVPDRFSGSGSGTDFTLKISRVEAEDVGVYYCGPGTQVPYTFGQGTKLEIK
notes: one-arm format as m2
B15: GLS3000 Q90E (antibody, name in Kabat numbering, V domains shown)
VH: QVQLVESGGGVVQPGRSLRLSCAASGFTFSNAWMHWVRQAPGKGLEWVAQIKAKSNNYATYYAESVKGRFTISRDDSKNSLYLQMNSLKTEDTAVYYCRYVHYGAYYGVDAWGQGTTVTVSS
VL: DIVMTQSPLSLPVTPGEPASISCRSSQSLVHSNRNTYLHWYQQKPGQAPRLLIYKVSNRFSGVPDRFSGSGSGTDFTLKISRVEAEDVGVYYCGEGTQVPYTFGQGTKLEIK
notes: one-arm format as m2
B16: GLS3000 P95E (antibody, name in Kabat numbering, V domains shown)
VH: QVQLVESGGGVVQPGRSLRLSCAASGFTFSNAWMHWVRQAPGKGLEWVAQIKAKSNNYATYYAESVKGRFTISRDDSKNSLYLQMNSLKTEDTAVYYCRYVHYGAYYGVDAWGQGTTVTVSS
VL: DIVMTQSPLSLPVTPGEPASISCRSSQSLVHSNRNTYLHWYQQKPGQAPRLLIYKVSNRFSGVPDRFSGSGSGTDFTLKISRVEAEDVGVYYCGQGTQVEYTFGQGTKLEIK
notes: one-arm format as m2
B17: GLS3000 Q27L (antibody, name in Kabat numbering, V domains shown)
VH: QVQLVESGGGVVQPGRSLRLSCAASGFTFSNAWMHWVRQAPGKGLEWVAQIKAKSNNYATYYAESVKGRFTISRDDSKNSLYLQMNSLKTEDTAVYYCRYVHYGAYYGVDAWGQGTTVTVSS
VL: DIVMTQSPLSLPVTPGEPASISCRSSLSLVHSNRNTYLHWYQQKPGQAPRLLIYKVSNRFSGVPDRFSGSGSGTDFTLKISRVEAEDVGVYYCGQGTQVPYTFGQGTKLEIK
notes: one-arm format as m2
B18: GLS3000 Q27D (antibody, name in Kabat numbering, V domains shown)
VH: QVQLVESGGGVVQPGRSLRLSCAASGFTFSNAWMHWVRQAPGKGLEWVAQIKAKSNNYATYYAESVKGRFTISRDDSKNSLYLQMNSLKTEDTAVYYCRYVHYGAYYGVDAWGQGTTVTVSS
VL: DIVMTQSPLSLPVTPGEPASISCRSSDSLVHSNRNTYLHWYQQKPGQAPRLLIYKVSNRFSGVPDRFSGSGSGTDFTLKISRVEAEDVGVYYCGQGTQVPYTFGQGTKLEIK
notes: one-arm format as m2
B19: GLS3000 Q27E (antibody, name in Kabat numbering, V domains shown)
VH: QVQLVESGGGVVQPGRSLRLSCAASGFTFSNAWMHWVRQAPGKGLEWVAQIKAKSNNYATYYAESVKGRFTISRDDSKNSLYLQMNSLKTEDTAVYYCRYVHYGAYYGVDAWGQGTTVTVSS
VL: DIVMTQSPLSLPVTPGEPASISCRSSESLVHSNRNTYLHWYQQKPGQAPRLLIYKVSNRFSGVPDRFSGSGSGTDFTLKISRVEAEDVGVYYCGQGTQVPYTFGQGTKLEIK
notes: one-arm format as m2
B20: GLS3000 P95D (antibody, name in Kabat numbering, V domains shown)
VH: QVQLVESGGGVVQPGRSLRLSCAASGFTFSNAWMHWVRQAPGKGLEWVAQIKAKSNNYATYYAESVKGRFTISRDDSKNSLYLQMNSLKTEDTAVYYCRYVHYGAYYGVDAWGQGTTVTVSS
VL: DIVMTQSPLSLPVTPGEPASISCRSSQSLVHSNRNTYLHWYQQKPGQAPRLLIYKVSNRFSGVPDRFSGSGSGTDFTLKISRVEAEDVGVYYCGQGTQVDYTFGQGTKLEIK
notes: one-arm format as m2

Sequence of CD3ε homodimer protein (P07766 23-126 limits assumed): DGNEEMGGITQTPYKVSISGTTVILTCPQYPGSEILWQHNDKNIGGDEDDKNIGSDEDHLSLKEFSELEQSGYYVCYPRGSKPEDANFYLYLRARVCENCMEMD

The assay concerns the target CD3ε homodimer protein (human, UniProt P07766 23-126, limits assumed). As to the kind of experiment: SPR, immobilized CD3ε homodimer.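 Note: biacore T200 surface plasmon resonance at 25 °C, antibody variants flowed as analytes over amine-coupled CD3ε homodimer on a CM4 chip, variant binding amount divided by that of GLS3000 antibody.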 On the technique in general: SPR reads the build-up and loss of mass on a sensor chip optically.
For B1, the “ratio of amounts bound (vs GLS3000)” value turned out to be 0.63.
The result for B2 reads 0.29; that for B3, 0.24; that for B4, 0.73.
The result for B5 reads 0.17; that for B6, 1.19; that for B7, 0.43.
Then B8, with 0.75; and B9, with 0.19; and B10, with 0.5.
For the molecule B11, the “ratio of amounts bound (vs GLS3000)” value worked out at 0.72.
For B12, the “ratio of amounts bound (vs GLS3000)” value worked out at 0.85.
Then B13, with 0.37; and B14, with 0.27; and B15, with 0.85.
Then B16, with 0.39; and B17, with 0.92.
The result for B18 reads 0.85.
As for B19, the “ratio of amounts bound (vs GLS3000)” value amounted to 0.88.
The result for B20 reads 0.24.

The values are drawn from patent US20220040297A1 (Chugai, published 2022).
